Results: patent publication US20200249231

Legend:
[1] = biological target: T1, WYALQ (5-mer on peptide array)
T1 chain: WYALQ

[2] = biological target: T2, EWALQ (5-mer on peptide array)
T2 chain: EWALQ

[3] = biological target: T3, YRYRQ (5-mer on peptide array)
T3 chain: YRYRQ

[4] = biological target: T4, EWIAQ (5-mer on peptide array)
T4 chain: EWIAQ

[5] = biological target: T5, RFSQR (5-mer on peptide array)
T5 chain: RFSQR

[6] = biological target: T6, DWVAQ (5-mer on peptide array)
T6 chain: DWVAQ

[7] = biological target: T7, RYRQR (5-mer on peptide array)
T7 chain: RYRQR

[8] = biological target: T8, EYVAQ (5-mer on peptide array)
T8 chain: EYVAQ

[9] = biological target: T9, YQRQR (5-mer on peptide array)
T9 chain: YQRQR

[10] = biological target: T10, WQRQR (5-mer on peptide array)
T10 chain: WQRQR

[11] = biological target: T11, EYWLQ (5-mer on peptide array)
T11 chain: EYWLQ

[12] = biological target: T12, DYALQ (5-mer on peptide array)
T12 chain: DYALQ

[13] = biological target: T13, QRQTR (5-mer on peptide array)
T13 chain: QRQTR

[14] = biological target: T14, LRYRQ (5-mer on peptide array)
T14 chain: LRYRQ

[15] = biological target: T15, QRQRQ (5-mer on peptide array)
T15 chain: QRQRQ

[16] = biological target: T16, YRQRA (5-mer on peptide array)
T16 chain: YRQRA

[17] = biological target: T17, VRQRQ (5-mer on peptide array)
T17 chain: VRQRQ

[18] = biological target: T18, YKYRQ (5-mer on peptide array)
T18 chain: YKYRQ

[19] = biological target: T19, RYSQR (5-mer on peptide array)
T19 chain: RYSQR

[20] = biological target: T20, EWVAQ (5-mer on peptide array)
T20 chain: EWVAQ

[21] = biological target: T21, EYALQ (5-mer on peptide array)
T21 chain: EYALQ

[22] = biological target: T22, RYTQR (5-mer on peptide array)
T22 chain: RYTQR

[23] = biological target: T23, DWYLQ (5-mer on peptide array)
T23 chain: DWYLQ

[24] = biological target: T24, RQRQR (5-mer on peptide array)
T24 chain: RQRQR

[25] = biological target: T25, EYFLQ (5-mer on peptide array)
T25 chain: EYFLQ

[26] = biological target: T26, QYRQR (5-mer on peptide array)
T26 chain: QYRQR

[27] = biological target: T27, PRYRQ (5-mer on peptide array)
T27 chain: PRYRQ

[28] = biological target: T28, DYWLQ (5-mer on peptide array)
T28 chain: DYWLQ

[29] = biological target: T29, DYFLQ (5-mer on peptide array)
T29 chain: DYFLQ

[30] = biological target: T30, DWALQ (5-mer on peptide array)
T30 chain: DWALQ

[31] = biological target: T31, AYRQR (5-mer on peptide array)
T31 chain: AYRQR

[32] = biological target: T32, Z-[GGGYRYRQGGGG]
T32 chain: GGGYRYRQGGGG

[33] = biological target: T33, FRQRG (5-mer on peptide array)
T33 chain: FRQRG

[34] = biological target: T34, VRYRQ (5-mer on peptide array)
T34 chain: VRYRQ

[35] = biological target: T35, Z-[GGGDYALQGGGG]
T35 chain: GGGDYALQGGGG

[36] = biological target: T36, EYVLQ (5-mer on peptide array)
T36 chain: EYVLQ

[37] = biological target: T37, YRQTR (5-mer on peptide array)
T37 chain: YRQTR

[38] = biological target: T38, YRQSR (5-mer on peptide array)
T38 chain: YRQSR

[39] = biological target: T39, DYVAQ (5-mer on peptide array)
T39 chain: DYVAQ

[40] = biological target: T40, FRQRQ (5-mer on peptide array)
T40 chain: FRQRQ

B1: Streptomyces mobaraensis microbial transglutaminase (protein)
chain: DSDDRVTPPAEPLDRMPDPYRPSYGRAETVVNNYIRKWQQVYSHRDGRKQQMTEEQREWLSYGCVGVTWVNSGQYPTNRLAFASFDEDRFKNELKNGRPRSGETRAEFEGRVAKESFDEEKGFQRAREVASVMNRALENAHDESAYLDNLKKELANGNDALRNEDARSPFYSALRNTPSFKERNGGNHDPSRMKAVIYSKHFWSGQDRSSSADKRKYGDPDAFRPAPGTGLVDMSRDRNIPRSPTSPGEGFVNFDYGWFGAQTEADADKTVWTHGNHYHAPNGSLGAMHVYESKFRNWSEGYSDFDRGAYVITFIPKSWNTAPDKVKQGWP
5-mer peptide array, incorporation of N-(biotinyl)cadaverine [1]: The 16 glutamine-donor substrates identified with MTG
5-mer peptide array, incorporation of N-(biotinyl)cadaverine [2]: The 16 glutamine-donor substrates identified with MTG
5-mer peptide array signal with MTG [3]: found in the mid-field of the signal distribution on the array performed with MTG
5-mer peptide array, incorporation of N-(biotinyl)cadaverine [4]: The 16 glutamine-donor substrates identified with MTG
5-mer peptide array signal with MTG [5]: found in the mid-field of the signal distribution on the array performed with MTG
5-mer peptide array, incorporation of N-(biotinyl)cadaverine [6]: The 16 glutamine-donor substrates identified with MTG
5-mer peptide array signal with MTG [7]: found in the mid-field of the signal distribution on the array performed with MTG
5-mer peptide array, incorporation of N-(biotinyl)cadaverine [8]: The 16 glutamine-donor substrates identified with MTG
5-mer peptide array signal with MTG [9]: found in the mid-field of the signal distribution on the array performed with MTG
5-mer peptide array signal with MTG [10]: found in the mid-field of the signal distribution on the array performed with MTG
5-mer peptide array, incorporation of N-(biotinyl)cadaverine [11]: The 16 glutamine-donor substrates identified with MTG
5-mer peptide array, incorporation of N-(biotinyl)cadaverine [12]: The 16 glutamine-donor substrates identified with MTG
5-mer peptide array signal with MTG [13]: found in the mid-field of the signal distribution on the array performed with MTG
5-mer peptide array signal with MTG [14]: found in the mid-field of the signal distribution on the array performed with MTG
5-mer peptide array signal with MTG [15]: found in the mid-field of the signal distribution on the array performed with MTG
5-mer peptide array signal with MTG [16]: found in the mid-field of the signal distribution on the array performed with MTG
5-mer peptide array signal with MTG [17]: found in the mid-field of the signal distribution on the array performed with MTG
5-mer peptide array signal with MTG [18]: found in the mid-field of the signal distribution on the array performed with MTG
5-mer peptide array signal with MTG [19]: found in the mid-field of the signal distribution on the array performed with MTG
5-mer peptide array, incorporation of N-(biotinyl)cadaverine [20]: The 16 glutamine-donor substrates identified with MTG
5-mer peptide array, incorporation of N-(biotinyl)cadaverine [21]: The 16 glutamine-donor substrates identified with MTG
5-mer peptide array signal with MTG [22]: found in the mid-field of the signal distribution on the array performed with MTG
5-mer peptide array, incorporation of N-(biotinyl)cadaverine [23]: The 16 glutamine-donor substrates identified with MTG
5-mer peptide array signal with MTG [24]: found in the mid-field of the signal distribution on the array performed with MTG
5-mer peptide array, incorporation of N-(biotinyl)cadaverine [25]: The 16 glutamine-donor substrates identified with MTG
5-mer peptide array signal with MTG [26]: found in the mid-field of the signal distribution on the array performed with MTG
5-mer peptide array signal with MTG [27]: found in the mid-field of the signal distribution on the array performed with MTG
5-mer peptide array, incorporation of N-(biotinyl)cadaverine [28]: The 16 glutamine-donor substrates identified with MTG
5-mer peptide array, incorporation of N-(biotinyl)cadaverine [29]: The 16 glutamine-donor substrates identified with MTG
5-mer peptide array, incorporation of N-(biotinyl)cadaverine [30]: The 16 glutamine-donor substrates identified with MTG
5-mer peptide array signal with MTG [31]: found in the mid-field of the signal distribution on the array performed with MTG
KM [32]: 644 µM
Vmax [32]: 21.5 pmol/s
kcat [32]: 0.93 s⁻¹
kcat/KM [32]: 1440 M⁻¹ s⁻¹
5-mer peptide array signal with MTG [33]: found in the mid-field of the signal distribution on the array performed with MTG
5-mer peptide array signal with MTG [34]: found in the mid-field of the signal distribution on the array performed with MTG
KM [35]: 847 µM
Vmax [35]: 36.7 pmol/s
kcat [35]: 1.39 s⁻¹
kcat/KM [35]: 1640 M⁻¹ s⁻¹
5-mer peptide array, incorporation of N-(biotinyl)cadaverine [36]: The 16 glutamine-donor substrates identified with MTG
5-mer peptide array signal with MTG [37]: found in the mid-field of the signal distribution on the array performed with MTG
5-mer peptide array signal with MTG [38]: found in the mid-field of the signal distribution on the array performed with MTG
5-mer peptide array, incorporation of N-(biotinyl)cadaverine [39]: The 16 glutamine-donor substrates identified with MTG
5-mer peptide array signal with MTG [40]: found in the mid-field of the signal distribution on the array performed with MTG
